Laboratory results taken from patent publication US20100008978A1, “NANOPARTICLES EFFECTIVE FOR INTERNALIZATION INTO CELLS” (THE REGENTS OF THE UNIVERSITY OF CALIFORNIA, priority 2008, published 2010).
Entries after “also recorded” stand apart in the source; their conditions may differ.

Legend:
[1] = molecular target: T1, epidermal growth factor receptor (EGFR) on tumor cells (human, UniProt P00533 25-1210); assay: apparent KD, flow cytometry, fluorescent immunoliposomes on MDAMB468 cells, 4 C; 74 scFv/liposome
T1 construct: whole, on cells; Intact EGFR on A431 and MDAMB468 cells (1x10^6-3x10^6 EGFR/cell); also called EGFR-expressing A431 cells; MDAMB468 cells

[2] = molecular target: T1, epidermal growth factor receptor (EGFR) …; assay: apparent KD, flow cytometry, fluorescent immunoliposomes on MDAMB468 cells, 4 C; 148 scFv/liposome
NR6 cells = assay: differential binding of scFv to cell lines by flow cytometry; conditions: parental, EGFR negative
[3] = molecular target: T2, EGFR (vIII) stably transfected NR6M cells (Homo sapiens, UniProt P00533, DELINS30-297G); assay: as above
T2 construct: expressed in transfected cells; host or cells: NR6M (NR6 stably transfected with EGFRvIII)

MDAMB468 cells = assay: as above; design: species or system human; conditions: 1×10^6−3×10^6 EGFR/cell
MDAMB453 cells = assay: as above; conditions: 10^4 EGFR/cell
A431 cells = molecular target: T3, A431 cells (Homo sapiens, UniProt P00533); assay: as above; conditions: 1×10^6−3×10^6 EGFR/cell
T3 construct: endogenous in cells; host or cells: A431

biotinylated EGFR-ECD = molecular target: T4, biotinylated EGFR-ECD (Homo sapiens, UniProt P00533); assay: KD of yeast-displayed scFv for biotinylated EGFR-ECD by flow cytometry; type: binding; conditions: concentrations as high as 8 μM
T4 construct: Recombinant EGFR-ECD was expressed in HEK293 cells; made in house; host or cells: HEK293
Experimental: Generally, six to eight different concentrations of biotinylated EGFR were used to span a range of concentrations from ten times above to ten times below the KD. Incubation volumes, times and yeast numbers were chosen to ensure that the studies were done in at least fivefold antigen excess and that equilibrium had been achieved (Razai et al. (2005) J. Mol. Biol. 351: 158-169). For anti-EGFR scFv, […] in 50 μl were incubated with biotinylated EGFR-ECD for 1 h at room temperature. […] Only yeast displaying scFv (as determined by binding of SV5 mAb) were gated for affinity measurements.

[4] = molecular target: T5, A431 cells expressing EGFR (Homo sapiens, UniProt P00533); assay: scFv affinity for cells expressing EGFR (A431) by flow cytometry; type: binding
T5 construct: Human squamous carcinoma A431 cells expressing EGFR; endogenous in cells; host or cells: A431
Experimental: Human squamous carcinoma A431 cells expressing EGFR were grown to 80-90% confluence in RPMI medium supplemented with 10% fetal bovine serum and harvested by trypsinization. […] Cell binding was performed at 4° C. in FACS buffer in a volume calculated to ensure fivefold scFv excess and for a duration calculated to ensure that the reaction had reached equilibrium. After two washes with 200 μL of FACS buffer, cell-bound scFv was detected by the addition of 100 μl of 1 μg/ml biotinylated His probe (Santa Cruz Biotech.) and a 1:800 (v/v) dilution of streptavidin-PE (Biosource). After incubation at 4° C. for 30 min, the cells were washed twice and resuspended in PBS containing 4% (v/v) paraformaldehyde. Fluorescence was measured by flow cytometry in a FACS LSRII instrument (Becton Dickinson), and the median fluorescence intensity (MFI) values were fit to the equation:
MFI=MFImin+MFImax([Ab]/(KD+[Ab])
using the software program Kaleidagraph as described previously (Benedict et al. (1997) J. Immunol. Methods, 201: 223-231).

B1: EGFR-targeted immunoliposome constructed from C10 scFv (other)
VH: EVQLVQSGAEVKKPGSSVKVSCKASGGTFSSYAISWVRQAPGQGLEWMGGIIPIFGTANYAQKFQGRVTITADESTSTAYMELSSLRSEDTAVYYCAREEGPYCSSTSCYGAFDIWGQGTLVTVSS
VL: QSVLTQDPAVSVALGQTVKITCQGDSLRSYFASWYQQKPGQAPTLVMYARNDRPAGVPDRFSGSKSGTSASLAISGLQSEDEADYYCAAWDDSLNGYLFGAGTKLTVL
modifications: free cysteine residue at the COOH terminus conjugated to Mal-PEG-DSPE and inserted into the liposome ; The scFv carries a free cysteine at the COOH terminus conjugated to Mal-PEG-DSPE and inserted into a 100-120 nm liposome. It is multivalent, at 12-148 scFv per liposome. None of this can be carried by the letters.
notes: also called C10 ILs; C10 IL; not shown: scFv linker, the C-terminal extension with the free cysteine and tags, and the Mal-PEG-DSPE liposome carrier
[1]
  Kd: 1.75 nM
[2]
  Kd: 0.36 nM

B2: C10: parental (wild-type) internalizing human anti-EGFR scFv from a non-immune phage library; SEQ ID NO:1 (protein)
scFv: EVQLVQSGAEVKKPGSSVKVSCKASGGTFSSYAISWVRQAPGQGLEWMGGIIPIFGTANYAQKFQGRVTITADESTSTAYMELSSLRSEDTAVYYCAREEGPYCSSTSCYGAFDIWGQGTLVTVSS
modifications: Synthetic antibody
NR6 cells
  binding to NR6 cells: minimal binding; also recorded: did not stain
[3]
  binding to NR6M cells: strong staining; also recorded: stained
MDAMB468 cells
  binding to MDAMB468 cells: stained
MDAMB453 cells
  binding to MDAMB453 cells: did not stain
A431 cells
  binding to A431 cells: stained
Biotinylated EGFR-ECD
  binding of yeast-displayed scFv to biotinylated recombinant EGFR: only minimal binding

B3: 2224: P2/2 scFv combined with the VH CDR3 Gly to Ala mutation from P2/4; SEQ ID NO:17 and 24 (protein)
scFv: QSVLTQDPAVSVALGQTVKITCQGDSLRSYLASWYQQKPGQAPTLVTYARNDRPAGVPDRFSGSKSGTSASLAISGLQSEDEADYYCAAWDDSLNGYLFGAGTKLTVL
modifications: Synthetic antibody
[4]
  improvement in affinity compared to C10 scFv: 280 fold
